Laboratory results from patent publication US20050245438A1 (SALK INSTITUTE FOR BIOLOGICAL STUDIES, published 2005).
Numbered stars: 1 amine (or outer) side, 2 acyl side, 3 side chain; on linkers, the order of the positions; unused ones are H or OH. Bridge positions count the residues as written; N and C are the ends. Square brackets hold non-standard residues; d marks the D form. Ends that are not written are not given here. * marks the point of attachment. (2S,3R)βMe2Nal = L-threo-(2S,3R)-β-methyl-2-naphthylalanine, (2S,3R)-2-amino-3-(naphthalen-2-yl)butanoic acid, C[C@H](c1ccc2ccccc2c1)[C@H](N[*:1])C(=O)[*:2]; threo‑(2S,3R)CβMe‑2Nal = threo-(2S,3R)-β-methyl-2-naphthylalanine (L-threo), C[C@H](c1ccc2ccccc2c1)[C@H](N[*:1])C(=O)[*:2]; d2Nal(3S-Me) = C[C@@H](c1ccc2ccccc2c1)[C@@H](N)C(=O)O; Phe(4-CH2NH2) = NCc1ccc(C[C@H](N)C(=O)O)cc1; Tyr(127I) = tyrosine iodinated with ^127I; Phe(4-NH2) = Nc1ccc(C[C@H](N)C(=O)O)cc1; 2Nal = N[C@@H](Cc1ccc2ccccc2c1)C(=O)O; Carbamoyl = NC(=O)*

Tests used:
Experiment in all cases: radioligand displacement (125I-[Leu8,D-Trp22,Tyr25]SRIF-28), membrane pellet sections
[1] = biological target: T1, cloned human SRIF receptor SSTR1 (human, UniProt P30872 1-391)
T1 construct: whole, on cells; also called hSSTR1
Experimental: (§1) Cells are washed twice with and scraped into ice-cold 0.05 M Tris-HCl (pH 7.4), collected by centrifugation, and homogenized using a rotor/stator/system in the same buffer. After centrifugation at 120 g for 5 min at 4° C., the supernatant is collected and centrifuged again at 48,000 g for 30 min at 4° C. The resulting pellet is resuspended in ice-cold Tris buffer, transferred into a microfuge tube, and centrifuged at 20,000 g for 15 min at 4° C. After withdrawal of the supernatant, the membrane pellet is stored at −80° C.
(§2) Receptor autoradiography is performed on 20 μm thick cryostat sections of the membrane pellets, mounted on microscope slides, and then stored at −20° C. […] Increasing concentrations of the unlabeled peptide are used ranging from 0.1-1000 nM. Unlabeled somatostatin-28 is run in parallel using the same increasing concentrations, as a control. IC₅₀ values are calculated after quantification of the data using a computer-assisted image processing system as known in this art.

[2] = biological target: T2, cloned human SRIF receptor SSTR2 (human, UniProt P30874 1-369)
T2 construct: whole, on cells; assayed as cryostat sections of membrane pellets of the transfected cells; also called hSSTR2
Experimental: as §1, §2

[3] = biological target: T3, cloned human SRIF receptor SSTR3 (human, UniProt P32745 1-418)
T3 construct: whole, on cells; assayed as cryostat sections of membrane pellets of the transfected cells; also called hSSTR3
Experimental: as §1, §2

[4] = biological target: T4, cloned human SRIF receptor SSTR4 (human, UniProt P31391 1-388)
T4 construct: whole, on cells; assayed as cryostat sections of membrane pellets of the transfected cells; also called hSSTR4
Experimental: as §1, §2

[5] = biological target: T5, cloned human SRIF receptor SSTR5 (human, UniProt P35346 1-364)
T5 construct: whole, on cells; assayed as cryostat sections of membrane pellets of the transfected cells; also called hSSTR5
Experimental: as §1, §2

T1 sequence (P30872 whole entry): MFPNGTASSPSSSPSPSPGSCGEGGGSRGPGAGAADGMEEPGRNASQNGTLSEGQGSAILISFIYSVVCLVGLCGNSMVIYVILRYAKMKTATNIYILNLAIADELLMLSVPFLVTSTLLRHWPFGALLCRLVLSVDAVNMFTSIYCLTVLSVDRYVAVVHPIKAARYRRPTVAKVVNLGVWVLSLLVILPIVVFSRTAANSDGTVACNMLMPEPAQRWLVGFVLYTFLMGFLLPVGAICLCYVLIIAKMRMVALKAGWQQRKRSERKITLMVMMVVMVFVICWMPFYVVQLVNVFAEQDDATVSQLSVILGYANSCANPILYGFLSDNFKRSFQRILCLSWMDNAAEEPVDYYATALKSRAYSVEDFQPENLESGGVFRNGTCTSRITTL
T5 sequence (P35346 whole entry): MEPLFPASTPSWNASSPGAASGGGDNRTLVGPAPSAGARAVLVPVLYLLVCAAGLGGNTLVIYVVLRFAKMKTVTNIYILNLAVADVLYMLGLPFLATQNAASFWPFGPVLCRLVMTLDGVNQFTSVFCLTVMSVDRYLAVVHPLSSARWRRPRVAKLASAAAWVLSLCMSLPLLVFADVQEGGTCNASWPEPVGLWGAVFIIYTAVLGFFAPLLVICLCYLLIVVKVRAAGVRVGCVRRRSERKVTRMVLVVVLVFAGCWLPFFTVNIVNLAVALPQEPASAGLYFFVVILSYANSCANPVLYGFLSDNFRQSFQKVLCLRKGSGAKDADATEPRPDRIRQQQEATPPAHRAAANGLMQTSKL
T2 sequence (P30874 whole entry): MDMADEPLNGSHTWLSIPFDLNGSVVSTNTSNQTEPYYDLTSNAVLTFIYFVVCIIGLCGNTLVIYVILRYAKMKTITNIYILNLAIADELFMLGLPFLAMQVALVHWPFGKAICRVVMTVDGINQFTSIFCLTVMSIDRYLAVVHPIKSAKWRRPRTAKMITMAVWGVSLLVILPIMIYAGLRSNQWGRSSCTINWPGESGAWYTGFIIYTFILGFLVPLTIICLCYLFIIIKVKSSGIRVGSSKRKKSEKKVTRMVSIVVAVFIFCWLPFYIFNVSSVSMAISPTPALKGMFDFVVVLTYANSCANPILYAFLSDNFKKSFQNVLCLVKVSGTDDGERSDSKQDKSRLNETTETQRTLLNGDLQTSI
T3 sequence (P32745 whole entry): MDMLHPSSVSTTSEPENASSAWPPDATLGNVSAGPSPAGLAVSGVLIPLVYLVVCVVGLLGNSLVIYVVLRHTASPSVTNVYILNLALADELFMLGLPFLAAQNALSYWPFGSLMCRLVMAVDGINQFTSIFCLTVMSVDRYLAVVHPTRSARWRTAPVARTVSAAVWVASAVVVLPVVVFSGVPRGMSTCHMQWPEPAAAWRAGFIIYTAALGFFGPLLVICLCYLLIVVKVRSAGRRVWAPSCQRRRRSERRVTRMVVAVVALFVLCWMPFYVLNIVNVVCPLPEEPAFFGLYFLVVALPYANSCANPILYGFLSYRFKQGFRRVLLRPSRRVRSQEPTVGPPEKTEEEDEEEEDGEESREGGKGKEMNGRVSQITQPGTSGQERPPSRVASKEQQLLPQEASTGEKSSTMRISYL
T4 sequence (P31391 whole entry): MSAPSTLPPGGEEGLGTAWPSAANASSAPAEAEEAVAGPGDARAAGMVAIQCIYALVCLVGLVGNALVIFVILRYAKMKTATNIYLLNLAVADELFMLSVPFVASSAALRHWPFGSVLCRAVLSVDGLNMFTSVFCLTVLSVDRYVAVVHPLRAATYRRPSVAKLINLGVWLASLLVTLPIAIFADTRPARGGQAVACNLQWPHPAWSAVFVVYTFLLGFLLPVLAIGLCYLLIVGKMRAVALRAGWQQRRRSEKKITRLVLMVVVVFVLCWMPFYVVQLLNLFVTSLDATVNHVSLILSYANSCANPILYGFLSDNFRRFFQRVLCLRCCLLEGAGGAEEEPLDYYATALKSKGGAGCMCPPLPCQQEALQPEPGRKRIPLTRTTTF

Binder | IC50 [1] [nM] | IC50 [2] [nM] | IC50 [3] [nM] | IC50 [4] [nM] | IC50 [5] [nM]
H-CFY[d2Nal(3S-Me)]KTFC-OH (disulfide 1-8; SMILES C[C@@H](O)[C@@H]1NC(=O)[C@H](CCCCN)NC(=O)[C@@H]([C@@H](C)c2ccc3ccccc3c2)NC(=O)[C@H](Cc2ccc(O)cc2)NC(=O)[C@H](Cc2ccccc2)NC(=O)[C@@H](N)CSSC[C@@H](C(=O)O)NC(=O)[C@H](Cc2ccccc2)NC1=O, also called Peptide No. 17) [(cyclo)H-Cys-Phe-Tyr-threo-(2R,3S)C^βMe-2Nal-Lys-Thr-Phe-Cys-OH] | 410 | 30 | 18 | 2.3 | 18
H-CF[Phe(4-NH2)][2Nal]KTFC-OH (disulfide 1-8; SMILES C[C@@H](O)[C@@H]1NC(=O)[C@H](CCCCN)NC(=O)[C@H](Cc2ccc3ccccc3c2)NC(=O)[C@H](Cc2ccc(N)cc2)NC(=O)[C@H](Cc2ccccc2)NC(=O)[C@@H](N)CSSC[C@@H](C(=O)O)NC(=O)[C@H](Cc2ccccc2)NC1=O, synthetic cyclic octapeptide; also called Peptide 5; Peptide No. 5) [(cyclo)H-Cys-Phe-4Aph-2Nal-Lys-Thr-Phe-Cys-OH] | ~1100 |  | 630 | 2.9 | 610
H-YCF[Phe(4-NH2)][dW]KTFC-OH (disulfide 2-9, synthetic cyclic nonapeptide; also called Peptide No. 7) [(cyclo)H-Tyr-Cys-Phe-4Aph-D-Trp-Lys-Thr-Phe-Cys-OH] | 517 | 56 | 263 | 1.2 | 
Carbamoyl-CF[Phe(4-NH2)][dW]KTFC-OH (disulfide 1-8; SMILES C[C@@H](O)[C@@H]1NC(=O)[C@H](CCCCN)NC(=O)[C@@H](Cc2c[nH]c3ccccc23)NC(=O)[C@H](Cc2ccc(N)cc2)NC(=O)[C@H](Cc2ccccc2)NC(=O)[C@@H](NC(N)=O)CSSC[C@@H](C(=O)O)NC(=O)[C@H](Cc2ccccc2)NC1=O, synthetic cyclic octapeptide; also called Peptide No. 4) [(cyclo)Cbm-Cys-Phe-4Aph-D-Trp-Lys-Thr-Phe-Cys-OH] | 840 | 120 | 650 | 1.1 | 103
H-CF[Phe(4-NH2)]WKTFC-OH (disulfide 1-8, synthetic cyclic octapeptide, free N-terminus and free acid C-terminus; also called Peptide No. 1) [des-AA^1,2,4,5,12,13[4Aph^7]-SRIF, (cyclo)H-Cys-Phe-4Aph-Trp-Lys-Thr-Phe-Cys-OH] | 213 | 347 |  | 1.2 | 
Carbamoyl-CF[Phe(4-NH2)]WKTYC-OH (disulfide 1-8, synthetic cyclic octapeptide; also called Peptide No. 10) [(cyclo)Cbm-Cys-Phe-4Aph-Trp-Lys-Thr-Tyr-Cys-OH] | 757 |  |  | 3 | 557
H-YCFAWKTFC-OH (disulfide 2-9, synthetic cyclic nonapeptide; also called Peptide No. 13) [(cyclo)H-Tyr-Cys-Phe-Ala-Trp-Lys-Thr-Phe-Cys-OH] |  | 622 | 621 | 1.98 | 
H-[dC]FY[d2Nal(3S-Me)]KTFC-OH (disulfide 1-8, also called Peptide No. 16) [(cyclo)H-D-Cys-Phe-Tyr-threo-(2R,3S)C^βMe-2Nal-Lys-Thr-Phe-Cys-OH] | 545 | 12 | 14 | 0.55 | 27
Carbamoyl-YCFAWKTFC-OH (disulfide 2-9, synthetic cyclic nonapeptide; also called Peptide No. 13B) [(cyclo)Cbm-Tyr-Cys-Phe-Ala-Trp-Lys-Thr-Phe-Cys-OH] |  | 700 | 980 | 2.36 | 
H-CFA[dW]KTFC-OH (disulfide 1-8; SMILES C[C@@H]1NC(=O)[C@H](Cc2ccccc2)NC(=O)[C@@H](N)CSSC[C@@H](C(=O)O)NC(=O)[C@H](Cc2ccccc2)NC(=O)[C@H]([C@@H](C)O)NC(=O)[C@H](CCCCN)NC(=O)[C@@H](Cc2c[nH]c3ccccc23)NC1=O, synthetic cyclic octapeptide; also called Peptide 11; Peptide No. 11) [(cyclo)H-Cys-Phe-Ala-D-Trp-Lys-Thr-Phe-Cys-OH] |  | 183 | 897 | 0.98 | 199

Further binders by falling IC50 [4], results first:

IC50 [1] [nM] | IC50 [2] [nM] | IC50 [3] [nM] | IC50 [4] [nM] | IC50 [5] [nM] | Binder
 |  |  | 9.5 |  | CFA[dW]KTAC-OH (disulfide 1-8, synthetic cyclic octapeptide; also called Peptide No. 12B) [(cyclo)Cys-Phe-Ala-D-Trp-Lys-Thr-Ala-Cys-OH]
 | 227 |  | 4.3 | 110 | Carbamoyl-CF[Phe(4-NH2)][dW]KTYC-OH (disulfide 1-8, synthetic cyclic octapeptide; also called Peptide No. 10A) [(cyclo)Cbm-Cys-Phe-4Aph-D-Trp-Lys-Thr-Tyr-Cys-OH]
 |  | 1020 | 3.5 |  | [Tyr(127I)]CFAWKTFC (disulfide 2-9, also called Peptide No. 13A; the I-Tyr^2 analog) [Peptide No. 13 iodinated with ^127I]
 | 339 | 664 | 3.5 | 668 | H-[dC]FY[(2S,3R)βMe2Nal]KTFC-OH (disulfide 1-8; SMILES C[C@H](c1ccc2ccccc2c1)[C@@H]1NC(=O)[C@H](Cc2ccc(O)cc2)NC(=O)[C@H](Cc2ccccc2)NC(=O)[C@H](N)CSSC[C@@H](C(=O)O)NC(=O)[C@H](Cc2ccccc2)NC(=O)[C@H]([C@@H](C)O)NC(=O)[C@H](CCCCN)NC1=O, also called Peptide No. 16A; Peptide 16A) [(cyclo)H-D-Cys-Phe-Tyr-threo-(2S,3R)C^βMe-2Nal-Lys-Thr-Phe-Cys-OH]
 |  |  | 3.5 |  | H-CFAWKTAC-OH (disulfide 1-8, synthetic cyclic octapeptide; also called Peptide 12A; Peptide No. 12A) [(cyclo)H-Cys-Phe-Ala-Trp-Lys-Thr-Ala-Cys-OH]
 | 118 | 197 | 3.2 |  | Carbamoyl-YCF[Phe(4-CH2NH2)]WKTFC-OH (disulfide 2-9, synthetic cyclic nonapeptide; also called Peptide No. 15A) [(cyclo)Cbm-Tyr-Cys-Phe-Amp-Trp-Lys-Thr-Phe-Cys-OH]
 | 194 | 825 | 2.8 | 360 | H-CFY[threo‑(2S,3R)CβMe‑2Nal]KTFC-OH (disulfide 1-8; SMILES C[C@H](c1ccc2ccccc2c1)[C@@H]1NC(=O)[C@H](Cc2ccc(O)cc2)NC(=O)[C@H](Cc2ccccc2)NC(=O)[C@@H](N)CSSC[C@@H](C(=O)O)NC(=O)[C@H](Cc2ccccc2)NC(=O)[C@H]([C@@H](C)O)NC(=O)[C@H](CCCCN)NC1=O, later-eluting isomer, determined to incorporate the L-threo-β-Me-2Nal residue; also called Peptide No. 17A; 17a) [(cyclo)H-Cys-Phe-Tyr-threo-(2S,3R)C^βMe-2Nal-Lys-Thr-Phe-Cys-OH]
 | 259 | 326 | 2.4 |  | H-YCF[Phe(4-CH2NH2)]WKTFC-OH (disulfide 2-9, here position 7 is 4Amp; also called Peptide 15; Peptide No. 15) [(cyclo)H-Tyr-Cys-Phe-4 Amp-Trp-Lys-Thr-Phe-Cys-OH]
270 | 260 | 135 | 1.9 |  | H-YCF[Phe(4-NH2)]WKTFC-OH (disulfide 2-9, synthetic cyclic nonapeptide; also called Peptide No. 6) [(cyclo)H-Tyr-Cys-Phe-4Aph-Trp-Lys-Thr-Phe-Cys-OH]
650 |  | 780 | 1.46 |  | Carbamoyl-CF[Phe(4-NH2)]WKTFC-OH (disulfide 1-8, synthetic cyclic octapeptide; also called Peptide No. 3) [(cyclo)Cbm-Cys-Phe-4Aph-Trp-Lys-Thr-Phe-Cys-OH]
347 | 550 | 210 | 1.2 |  | Carbamoyl-YCF[Phe(4-NH2)]WKTFC-OH (disulfide 2-9, synthetic cyclic nonapeptide; also called Peptide No. 8) [(cyclo)Cbm-Tyr-Cys-Phe-4Aph-Trp-Lys-Thr-Phe-Cys-OH]
330 | 57 | 347 | 1.1 |  | H-YCFA[dW]KTFC-OH (disulfide 2-9, synthetic cyclic nonapeptide; also called Peptide No. 14) [(cyclo)H-Tyr-Cys-Phe-Ala-D-Trp-Lys-Thr-Phe-Cys-OH]
327 | 170 |  | 1.1 | 240 | H-CF[Phe(4-NH2)]WKTYC-OH (disulfide 1-8, synthetic cyclic octapeptide; also called Peptide 9; Peptide No. 9) [(cyclo)H-Cys-Phe-4Aph-Trp-Lys-Thr-Tyr-Cys-OH]
450 | 71 | 271 | 0.88 | 30 | H-CF[Phe(4-NH2)][dW]KTFC-OH (disulfide 1-8, synthetic cyclic octapeptide; also called Peptide No. 2) [(cyclo)H-Cys-Phe-4Aph-D-Trp-Lys-Thr-Phe-Cys-OH]
 | 807 | 750 | 0.84 | 633 | H-CFAWKTFC-OH (disulfide 1-8; SMILES C[C@@H]1NC(=O)[C@H](Cc2ccccc2)NC(=O)[C@@H](N)CSSC[C@@H](C(=O)O)NC(=O)[C@H](Cc2ccccc2)NC(=O)[C@H]([C@@H](C)O)NC(=O)[C@H](CCCCN)NC(=O)[C@H](Cc2c[nH]c3ccccc23)NC1=O, synthetic cyclic octapeptide; also called Peptide No. 12) [des-AA^1,2,4,5,12,13-[Ala^7]SRIF, (cyclo)H-Cys-Phe-Ala-Trp-Lys-Thr-Phe-Cys-OH]
